The target in experiment [1] is recombinant human soluble MSLN (human) (UniProt Q13421). As to the kind of experiment: Biacore (SPR), antibody captured on chip, rHuMSLN sol. in flow.
The target of experiment [2] is native human MSLN expressed on the cell surface (N87 tumor cells) (human) (UniProt Q13421). The experiment can be described thus: KinExA equilibrium binding to N87 tumor cells expressing native human MSLN. For orientation: A kinetic exclusion assay measures how much of one partner remains free in solution.
Chain of native human MSLN expressed on the cell surface (N87 tumor cells) (human) (Q13421 296-606 limits assumed): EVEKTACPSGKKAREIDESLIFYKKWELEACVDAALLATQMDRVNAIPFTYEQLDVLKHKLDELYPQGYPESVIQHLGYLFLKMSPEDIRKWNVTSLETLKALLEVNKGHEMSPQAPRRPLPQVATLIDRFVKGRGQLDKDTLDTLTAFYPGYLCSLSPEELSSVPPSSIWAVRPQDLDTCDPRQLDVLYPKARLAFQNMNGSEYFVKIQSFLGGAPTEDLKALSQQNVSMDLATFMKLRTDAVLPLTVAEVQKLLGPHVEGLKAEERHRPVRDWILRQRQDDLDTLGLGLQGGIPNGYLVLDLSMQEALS
For experiment [3] the target is unchanged. The experiment can be described thus: KinExA on N87 cells compared with Biacore on soluble MSLN.

Our source for the Kd and fold higher selectivity for native surface bound MSLN compared to soluble MSLN values is US20190055316A1.

Chain of recombinant human soluble MSLN (human) (Q13421 296-606 limits assumed): as above

B1: Ab237 (antibody, V domains shown)
VH: QVQLQESGPGLVKPSQTLSLTCTVSGGSINNNNYYWTWIRQHPGKGLEWIGYIYYSGSTFYNPSLKSRVTISVDTSKTQFSLKLSSVTAADTAVYYCAREDTMTGLDVWGQGTTVTVSS
VL: DIQMTQSPSSLSASVGDRVTITCRASQSINNYLNWYQQKPGKAPTLLIYAASSLQSGVPSRFSGSRSGTDFTLTISSLQPEDFAAYFCQQTYSNPTFGQGTKVEVK
As usually defined, the Kd is the equilibrium constant for the complex coming apart. In the case of B1, the dissociation constant Kd was 97 pM in experiment [1] and 3.5 pM in experiment [2]. This molecule yielded a fold higher selectivity for native surface bound MSLN compared to soluble MSLN in experiment [3] of 30 fold.
